PMC9482650, “Quantitative fragmentomics allow affinity mapping of interactomes” (Nature Communications, 2022)

System: HEK293T cells
Assay: Label-free MS proteome of stable cell lines expressing HPV16 E6 or E6ΔPBM
Assay type: cell-based, human
Settings: protein level; for Difference log2 E6/Ctrl / Ratio E6/Ctrl: E6 cell line vs control; for Difference log2 dPBM/E6 / Ratio dPBM/E6: dPBM cell line vs E6 cell line; for Difference log2 dPBM/Ctrl / Ratio dPBM/Ctrl: dPBM cell line vs control
Protocol: HEK293T and HeLa cells were authenticated and found 100% identity to ATCC cat. CRL-3216 and ATCC cat. CCL-2, respectively. Jurkat and HaCat cell lines were not authenticated (original source: ECACC and Deutsches Krebsforschungszentrum DKFZ, respectively). HeLa cells were grown in DMEM (1 g/L glucose, Gibco) medium completed with 5% FCS and 40 μg/mL gentamicin, diluted every 3rd/4th day 1/10. HaCat cells were grown in DMEM (1 g/L glucose, Gibco) medium completed with 10% FCS and 40 μg/mL gentamicin, diluted every 3rd/4th day 1/4. Jurkat cells were grown in RPMI (Gibco) medium completed with 10% FCS and 40 μg/mL gentamicin, diluted every 3rd/4th day 1/12. All cells were kept at 37 °C and 5% CO2. For proteomics analyses cells were seeded on T-175 flasks. After they reached confluency, adherent cells were washed with PBS once and collected by scraping with ice-cold lysis buffer (Hepes-KOH pH 7.5 50 mM, NaCl 150 mM, Triton X-100 1%, complete EDTA-free protease inhibitor cocktail 1×, EDTA 2 mM, TCEP 5 mM, glycerol 10%). Jurkat cells were collected by 1000 g × centrifugation, washed once with PBS, then collected by 1000 g × 5 min centrifugation again and lysed in ice-cold lysis buffer. Lysates were sonicated 4 × 20 s with 1 s long pulses on ice, then incubated rotating at 4 °C for 30 min. Lysates were centrifuged at 12,000 rpm 4 °C for 20 min and supernatant was kept for further analysis. Concentration determination was carried out by standard Bradford method (Bio-Rad Protein Assay Dye Reagent #5000006) using BSA (MP BIomedicals #160069) as control on a Bio-Rad SmartSpec 3000 spectrophotometer instrument.
The samples were precipitated with TCA 20% overnight at 4 °C and centrifuged at 14,000 rpm for 10 min at 4 °C. The protein pellets were washed twice with 1 mL cold acetone and air dried. The protein extracts were solubilized in urea 8 M, reduced with 5 mM TCEP for 30 min, and alkylated with 10 mM iodoacetamide for 30 min in the dark. Double digestion was performed at 37 °C with 500 ng endoproteinase Lys-C for 4 h, followed by fourfold dilution and an overnight digestion with 500 ng trypsin. Peptide mixtures were then desalted on C18 spin-column and dried on Speed-Vacuum.
Samples were analyzed using an Ultimate 3000 nano-RSLC (Thermo Scientific, San Jose California) coupled in line with a LTQ-Orbitrap ELITE mass spectrometer via a nano-electrospray ionization source (Thermo Scientific, San Jose California). Peptide mixtures were injected in 0.1% TFA on a C18 Acclaim PepMap100 trap-column (75 µm ID × 2 cm, 3 µm, 100 Å, Thermo Fisher Scientific) for 3 min at 5 µL/min with 2% ACN, 0.1% FA in H2O and then separated on a C18 Accucore nano-column (75 µm ID × 50 cm, 2.6 µm, 150 Å, Thermo Fisher Scientific) at 220 nl/min and 38 °C with a 90 min linear gradient from 5% to 30% buffer B (A: 0.1% FA in H2O/B: 99% ACN, 0.1% FA in H2O), regeneration at 5% B. The mass spectrometer was operated in positive ionization mode, in data-dependent mode with survey scans from m/z 350–1500 acquired in the Orbitrap at a resolution of 120,000 at m/z 400. The 20 most intense peaks from survey scans were selected for further fragmentation in the Linear Ion Trap with an isolation window of 2.0 Da and were fragmented by CID with normalized collision energy of 35%. (TOP20CID method) Unassigned and single charged states were excluded from fragmentation. The Ion Target Value for the survey scans (in the Orbitrap) and the MS2 mode (in the Linear Ion Trap) were set to 1E6 and 5E3 respectively and the maximum injection time was set to 100 ms for both scan modes. Dynamic exclusion was set to 20 s after one repeat count with mass width at ±10 ppm.
Proteins were identified by database searching using SequestHT (Thermo Fisher Scientific) with Proteome Discoverer 2.4 software (PD2.4, Thermo Fisher Scientific) on human FASTA database downloaded from SwissProt (reviewed, release 2020_11_27, 20304 entries, https://www.uniprot.org/). […]

| Molecule | Difference log2 E6/Ctrl | Ratio E6/Ctrl | Difference log2 dPBM/E6 | Ratio dPBM/E6 | Difference log2 dPBM/Ctrl | Ratio dPBM/Ctrl |
| --- | --- | --- | --- | --- | --- | --- |
| CRTAP (protein, UniProt O75718 27-401, looked up) Cartilage-associated protein: QYERYSFRSFPRDELMPLESAYRHALDKYSGEHWAESVGYLEISLRLHRLLRDSEAFCHRNCSAAPQPEPAAGLASYPELRLFGGLLRRAHCLKRCKQGLPAFRQSQPSREVLADFQRREPYKFLQFAYFKANNLPKAIAAAHTFLLKHPDDEMMKRNMAYYKSLPGAEDYIKDLETKSYESLFIRAVRAYNGENWRTSITDMELALPDFFKAFYECLAACEGSREIKDFKDFYLSIADHYVEVLECKIQCEENLTPVIGGYPVEKFVATMYHYLQFAYYKLNDLKNAAPCAVSYLLFDQNDKVMQQNLVYYQYHRDTWGLSDEHFQPRPEAVQFFNVTTLQKELYDFAKENIMDDDEGEVVEYVDDLLELEETS | 1.355 | 2.558 | -3.496 | 0.08864 | -2.141 | 0.2267 |
| ATP5IF1 (protein, UniProt Q9UII2 26-106, looked up) ATPase inhibitor, …: GSDQSENVDRGAGSIREAGGAFGKREQAEEERYFRAQSREQLAALKKHHEEEIVHHKKEIERLQKEIERHKQKIKMLKHDD | 4.465 | 22.0916 | -4.258 | 0.05227 | 0.2076 | 1.155 |
| FERMT2 (protein, UniProt Q96AC1 1-680, looked up) Fermitin family homolog 2: MALDGIRMPDGCYADGTWELSVHVTDLNRDVTLRVTGEVHIGGVMLKLVEKLDVKKDWSDHALWWEKKRTWLLKTHWTLDKYGIQADAKLQFTPQHKLLRLQLPNMKYVKVKVNFSDRVFKAVSDICKTFNIRHPEELSLLKKPRDPTKKKKKKLDDQSEDEALELEGPLITPGSGSIYSSPGLYSKTMTPTYDAHDGSPLSPTSAWFGDSALSEGNPGILAVSQPITSPEILAKMFKPQALLDKAKINQGWLDSSRSLMEQDVKENEALLLRFKYYSFFDLNPKYDAIRINQLYEQAKWAILLEEIECTEEEMMMFAALQYHINKLSIMTSENHLNNSDKEVDEVDAALSDLEITLEGGKTSTILGDITSIPELADYIKVFKPKKLTLKGYKQYWCTFKDTSISCYKSKEESSGTPAHQMNLRGCEVTPDVNISGQKFNIKLLIPVAEGMNEIWLRCDNEKQYAHWMAACRLASKGKTMADSSYNLEVQNILSFLKMQHLNPDPQLIPEQITTDITPECLVSPRYLKKYKNKQITARILEAHQNVAQMSLIEAKMRFIQAWQSLPEFGITHFIARFQGGKKEELIGIAYNRLIRMDASTGDAIKTWRFSNMKQWNVNWEIKMVTVEFADEVRLSFICTEVDCKVVHEFIGGYIFLSTRAKDQNESLDEEMFYKLTSGWV | 0.234 | 1.176 | -3.123 | 0.1148 | -2.889 | 0.135 |
